Experimental data from paper PMC6851296, “Atomic-resolution crystal structures of the immune protein conglutinin from cow reveal specific interactions of its binding site with N-acetylglucosamine” (The Journal of Biological Chemistry, 2019).

Molecular target: the molecule itself
Test: SEC; Superdex-75 HR 10/300, Tris buffer with 10 mM EDTA, 1 ml/min; calibrated with alcohol dehydrogenase, BSA, carbonic anhydrase and cytochrome C; nondissociating conditions

B1: recombinant fragment of bovine conglutinin consisting of the CRD and neck regions (rfBC, residues 199-351 of native conglutinin) (domain or fragment)
chain: GSAEANALKQRVTILDGHLRRFQNAFSQYKKAVLFPDGQAVGEKIFKTAGAVKSYSDAEQLCREAKGQLASPRSSAENEAVTQMVRAQEKNAYLSMNDISTEGRFTYPTGEILVYSNWADGEPNNSDEGQPENCVEIFPDGKWNDVPCSKQLLVICEF
notes: vector-derived first five residues (GLAEV in conglutinin); bovine conglutinin, neck plus carbohydrate recognition domain, the C-terminal 153 residues Asn-199 to Phe-351; also called trimeric recombinant neck plus CRD conglutinin fragment; recombinant homotrimeric fragment of conglutinin
stoichiometry N: 3
